Experimental data from patent US20160369011A1 (EISAI R AND D MANAGEMENT, published 2016).
Where a chain is given by its changes, count along the chain named.

B1: zu155D5-4 (antibody, human IgG1, kappa)
heavy: not shown
light: DIQMTQSPSTLSASVGDRVTITCQASQSISSYLAWYQQKPGKAPKLLIYYASTLASGVPSRFSGSGSGTEFTLTITGVQCDDAATYYCLGVYGYSFDDGIAFGGGTKVEIKRTVAAPSVFIFPPSDEQLKSGTASVVCLLNNFYPREAKVQWKVDNALQSGNSQESVTEQDSKDSTYSLSSTLTLSKADYEKHKVYACEVTHQGLSSPVTKSFNRGEC
notes: Humanized 155D5, human IgG1 kappa; Tested both protein A purified and decapped
B2: zu155D5-2 (antibody, human IgG1, kappa, V domains shown)
VH: QVQLVESGGGLVQPGGSLRLSCSASGFSLNSYAMIWVRQAPGKGLEYIGFITTGGTTYYADSVKGRFTISRDNSKNTLYLQMNSLRAEDTAVYYCARDRVKSYDDYGDLDAFEPWGQGTLVTVSS
VL: DIQMTQSPSTLSASVGDRVTITCQASQSISSYLAWYQQKPGKAPKLLIYYASTLASGVPSRFSGSGSGTEFTLTITGVQCDDFATYYCLGVYGYSFDDGIAFGGGTKVEIKR
notes: as for B1
B3: zu155D5-1 (antibody, human IgG1, kappa, V domains shown)
VH: B2 VH
VL: B2 VL with T76S, G77S, V78L
notes: Humanized 155D5, human IgG1 kappa; Tested both protein A purified (Cys80 capped) and decapped; also called zu155D5-CXXF; zu155D5-1 (huVK1-5)
B4: zu155D5-7 (antibody, human IgG1, kappa)
heavy: not shown
light: B1 light with K107E, V108L
notes: as for B1
B5: zu155D5-5 (antibody, human IgG1, kappa, V domains shown)
VH: B2 VH
VL: B2 VL with S63K, F83A
notes: as for B1
B6: zu155D5-6 (antibody, human IgG1, kappa)
heavy: not shown
light: B1 light with L11V, S14A, D17G, R18T
notes: as for B1
B7: zu155D5-3 (antibody, human IgG1, kappa, V domains shown)
VH: B2 VH
VL: B2 VL with T76S, G77S, V78L, F83A
notes: Humanized 155D5, human IgG1 kappa; Tested both protein A purified and decapped; also called zu155D5-CXXA
B8: xi155D5/xi1-55-2 bivalent/bispecific antigen-binding molecule (bispecific antibody)
heavy 1: QSVKESGGRLVTPGTPLTLTCTVSGFSLNSYAMIWVRQAPGEGLEYIGFITTGGTTYYASWAKGRFTISRTSTTVDLKLTRPTTEDTATYFCARDRVKSYDDYGDLDAFEPWGPGTLVTISS
light 1: ELVMTQTPSSVSAAVGGTVTINCQASQSISSYLAWYQQKPGQPPKLLIYYASTLASGVPSRFKGSGSGTEFTLTITGVQCDDAATYYCLGVYGYSFDDGIAFGGGTELEIKRTVAAPSVFIFPPSDEQLKSGTASVVCLLNNFYPREAKVQWKVDNALQSGNSQESVTEQDSKDSTYSLSSTLTLSKADYEKHKVYACEVTHQGLSSPVTKSFNRGEC
heavy 2: QSVEESGGDLVKPEGSLTLTCTASGFSFSSSYWGCWVRQAPGKGPEWIACIYGGSSGTTYYPNWAKGRFSISKTSSTTVTLQMASLTAADTATYFCARVTNGGDWDFKLWGPGTLVTISS
light 2: ELVMTQTPASVEVAVGGTVTIKCQASQSINTYLAWYQQKPGQPPKLLIYRASTLASGVPSRFKGSGSGTEFTLTISDLECADAATYYCQQSVRVIDVDNTFGGGTEVVVKRTVAAPSVFIFPPSDEQLKSGTASVVCLLNNFYPREAKVQWKVDNALQSGNSQESVTEQDSKDSTYSLSSTLTLSKADYEKHKVYACEVTHQGLSSPVTKSFNRGEC
modifications: maleimido-PEG4-azide on Cys80, joined by copper-free click chemistry to the DBCO on Cys80 of the xi155D5 light chain; maleimido-PEG4-dibenzylcyclooctyne (DBCO) on Cys80, joined by copper-free click chemistry to the azide on Cys80 of the xi1-55-2 light chain
notes: Two papain Fabs linked chemically through their light chain Cys80 residues; mass 95,939 Da by mass spectrometry; also called biFab; bivalent/bispecific Fab-Fab; not shown: human IgG1 CH1 and hinge up to the papain cleavage site
B9: xi1-55-2 Fab (Fab, V domains shown)
VH: B8 heavy 2
VL: ELVMTQTPASVEVAVGGTVTIKCQASQSINTYLAWYQQKPGQPPKLLIYRASTLASGVPSRFKGSGSGTEFTLTISDLECADAATYYCQQSVRVIDVDNTFGGGTEVVVKR
notes: Made from xi1-55-2 by limited papain digestion and protein A removal of Fc; Fabs were fully decapped; not shown: human IgG1 CH1 and hinge up to the papain cleavage site
B10: 155D5 (rabbit anti-CA9 mAb) (antibody, V domains shown)
VH: B8 heavy 1
VL: ELVMTQTPSSVSAAVGGTVTINCQASQSISSYLAWYQQKPGQPPKLLIYYASTLASGVPSRFKGSGSGTEFTLTITGVQCDDAATYYCLGVYGYSFDDGIAFGGGTELEIK
notes: Parental rabbit IgG with rabbit constant regions (Cys80-Cys171 disulfide); also called rabbit 155D5 MAb
B11: xi155D5 Fab (Fab, V domains shown)
VH: B8 heavy 1
VL: ELVMTQTPSSVSAAVGGTVTINCQASQSISSYLAWYQQKPGQPPKLLIYYASTLASGVPSRFKGSGSGTEFTLTITGVQCDDAATYYCLGVYGYSFDDGIAFGGGTELEIKR
notes: Made from xi155D5 by limited papain digestion and protein A removal of Fc; Fabs were fully decapped; not shown: human IgG1 CH1 and hinge up to the papain cleavage site

target: T1, human CA9 (carbonic anhydrase IX) (human, UniProt Q16790 38-414); experiment: BIAcore T100, mAb captured on anti-human IgG, antigen as analyte, 1:1 model; mAb purified by protein A (ProA)
Description: (§1) Antibody concentrations were adjusted to generate 30-40 RU signal when bound to the antigen. […] The sensor surface was washed by injecting HBS-P buffer for 1 min at a flow rate of 50 μL/min. To record the antigen association to the captured mAb, a series of increasing concentrations of antigen was injected for 60 sec at a flow rate of 50 μL/min. The dissociation of antigen was monitored for 30 min at the same flow rate. The sensor surface was regenerated by injecting 3 M MgCl₂ for 1 min and then 30 sec at a flow rate of 30 μL/min. Sensograms were analyzed with Biacore T100 Evaluation Software using a 1:1 Langmuir binding model.
(§2) xi155D5 and the humanized variants were purified by standard protein A chromatography or the decapping method, and their affinity was analyzed using BIAcore (Table 13).

Row | Binder | Kd [nM] | koff [s⁻¹] | kon [M⁻¹ s⁻¹]
1 | B1 | 0.664 | 0.000382 | 577000
2 | B2 | 0.569 | 0.000376 | 663000
3 | B3 | 0.498 | 0.000495 | 1.01e+06
4 | B4 | 0.534 | 0.000458 | 869000
5 | B5 | 0.639 | 0.000373 | 587000
6 | B6 | 0.533 | 0.000477 | 898000
7 | B7 | 0.562 | 0.000401 | 727000

Target: T2, human endosialin/TEM1 extracellular domain fused to mouse IgG2b Fc (human)
T2 construct: also called TEM1-Fc
T2 chain: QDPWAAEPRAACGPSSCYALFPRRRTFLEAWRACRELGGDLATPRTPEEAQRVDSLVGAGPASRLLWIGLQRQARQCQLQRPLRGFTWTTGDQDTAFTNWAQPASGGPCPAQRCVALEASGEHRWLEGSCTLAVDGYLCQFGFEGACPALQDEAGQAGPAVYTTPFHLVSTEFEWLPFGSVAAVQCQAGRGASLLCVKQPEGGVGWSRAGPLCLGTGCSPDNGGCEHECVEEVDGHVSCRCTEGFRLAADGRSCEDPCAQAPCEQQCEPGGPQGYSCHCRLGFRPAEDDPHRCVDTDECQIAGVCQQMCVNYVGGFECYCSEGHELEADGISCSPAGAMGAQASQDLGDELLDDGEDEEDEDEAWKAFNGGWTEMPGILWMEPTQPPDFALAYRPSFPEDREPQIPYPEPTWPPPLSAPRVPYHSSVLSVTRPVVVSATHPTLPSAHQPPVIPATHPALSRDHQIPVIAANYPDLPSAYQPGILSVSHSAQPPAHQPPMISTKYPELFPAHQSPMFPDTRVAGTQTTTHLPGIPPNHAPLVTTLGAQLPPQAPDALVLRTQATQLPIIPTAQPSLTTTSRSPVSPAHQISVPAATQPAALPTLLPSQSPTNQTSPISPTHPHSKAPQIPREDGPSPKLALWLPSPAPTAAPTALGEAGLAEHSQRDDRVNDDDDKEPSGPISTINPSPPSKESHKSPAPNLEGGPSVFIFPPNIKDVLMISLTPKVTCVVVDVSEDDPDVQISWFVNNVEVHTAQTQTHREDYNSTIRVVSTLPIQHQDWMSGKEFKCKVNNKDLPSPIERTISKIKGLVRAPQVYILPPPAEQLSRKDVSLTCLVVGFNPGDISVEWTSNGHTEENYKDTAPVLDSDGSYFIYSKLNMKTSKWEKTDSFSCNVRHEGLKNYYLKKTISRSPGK
Experiment: SPR, ligand TEM1-Fc, flow cell Fc3

Row | Binder | Kd [nM] | koff [s⁻¹] | kon [M⁻¹ s⁻¹]
8 | B8 | 0.31 | 0.000257 | 829000
9 | B9 | 0.382 | 0.000329 | 862000

target: T1, human CA9 (carbonic anhydrase IX); experiment: SPR (BIAcore), biotin-CA9 captured on CAP chip, antibody 0-50 nM as analyte
Description: To determine if chimerization, and therefore the loss of Cys80-Cys171 disulfide bond, results in structural perturbations leading to loss of antigen binding, the binding affinity of mAbs 155D5, xi155D5, 1-55-2, and xi1-55-2 by surface plasmon resonance was evaluated. Biotinylated ligand (biotin-hTEM1 for 1-55-2, biotin-CA9 for 155D5) was captured on a coated biotin CAP BIAcore chip (GE Healthcare, Piscataway, N.J.) using HBS-EP as running buffer. Final antigen capture levels were 130 RU and 280 RU, respectively, for biotin-TEM1 and biotin-CA9. Serial dilutions of antibody (120 μL of 0-50 nM) were passed over the ligand-coated chip. […] The chip surface was regenerated with 6 M GuHCl, 250 mM NaOH. Sensograms were double referenced and kinetic parameters were determined using BIAEvaluations software (ver. 4.1).

Row | Binder | Kd [nM] | koff [s⁻¹] | kon [M⁻¹ s⁻¹]
10 | B10 | 0.041 | 2.1e-05 | 510000

target: T1, human CA9 (carbonic anhydrase IX); experiment: SPR, ligand CA9, flow cell Fc3

Row | Binder | Kd [nM] | koff [s⁻¹] | kon [M⁻¹ s⁻¹]
11 | B8 | 0.121 | 3.91e-05 | 322000
12 | B11 | 0.0383 | 2.19e-05 | 572000

target: T1, human CA9 (carbonic anhydrase IX); experiment: BIAcore T100, mAb captured on anti-human IgG, antigen as analyte, 1:1 model; mAb purified by the decapping method (Decapped)
Description: as §1, §2

Row | Binder | Kd [nM] | koff [s⁻¹] | kon [M⁻¹ s⁻¹]
13 | B1 | 0.59 | 0.000378 | 641000
14 | B2 | 0.589 | 0.00027 | 458000
15 | B3 | 0.5 | 0.000355 | 770000
16 | B4 | 0.68 | 0.000319 | 485000
17 | B5 | 0.478 | 0.000273 | 572000
18 | B6 | 0.568 | 0.000319 | 558000
19 | B7 | 0.507 | 0.000351 | 726000

Target: T2, human endosialin/TEM1 extracellular …
Experiment: SPR, ligand TEM1-Fc, flow cell Fc4

Row | Binder | Kd [nM] | koff [s⁻¹] | kon [M⁻¹ s⁻¹]
20 | B8 | 0.185 | 0.000189 | 1.02e+06
21 | B9 | 0.376 | 0.000326 | 865000

target: T1, human CA9 (carbonic anhydrase IX); experiment: BIAcore, summary of Table 13; reference xi155D5; told of the group of humanized variants
Description: as §1, §2

Row | Binder | fold difference in KD against chimeric xi155D5 [fold]
22 | B1 | < 2
23 | B2 | < 2
24 | B3 | < 2
25 | B4 | < 2
26 | B5 | < 2
27 | B6 | < 2
28 | B7 | < 2

target: T1, human CA9 (carbonic anhydrase IX); experiment: SPR, ligand CA9, flow cell Fc4

Row | Binder | Kd [nM] | koff [s⁻¹] | kon [M⁻¹ s⁻¹]
29 | B8 | 0.15 | 4.4e-05 | 294000
30 | B11 | 0.0499 | 2.59e-05 | 519000
